Where two headings read alike, the source gives them in different places.
T1: human CDH6 on cells (human, UniProt P55285 54-790)
T1 sequence: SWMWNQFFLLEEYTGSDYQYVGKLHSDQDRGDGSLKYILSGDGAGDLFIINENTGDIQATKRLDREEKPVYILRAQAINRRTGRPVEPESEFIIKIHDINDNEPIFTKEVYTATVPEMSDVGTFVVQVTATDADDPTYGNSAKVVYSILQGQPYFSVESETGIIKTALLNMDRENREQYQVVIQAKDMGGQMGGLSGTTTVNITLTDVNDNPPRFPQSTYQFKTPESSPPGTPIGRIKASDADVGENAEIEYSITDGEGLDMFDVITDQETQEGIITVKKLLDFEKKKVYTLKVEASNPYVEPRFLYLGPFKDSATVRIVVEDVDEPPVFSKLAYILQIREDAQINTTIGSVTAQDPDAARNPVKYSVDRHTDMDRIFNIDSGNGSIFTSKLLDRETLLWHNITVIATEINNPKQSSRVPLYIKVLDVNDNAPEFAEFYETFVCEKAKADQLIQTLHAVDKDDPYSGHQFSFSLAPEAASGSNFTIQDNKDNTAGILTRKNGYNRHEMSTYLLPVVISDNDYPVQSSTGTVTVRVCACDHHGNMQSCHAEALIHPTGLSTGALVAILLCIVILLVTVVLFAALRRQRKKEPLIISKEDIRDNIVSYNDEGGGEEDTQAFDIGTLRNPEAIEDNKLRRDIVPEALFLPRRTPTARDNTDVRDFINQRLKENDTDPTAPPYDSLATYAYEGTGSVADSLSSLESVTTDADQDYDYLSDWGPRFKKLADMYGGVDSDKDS

T2: hCDH6aa54-615 APPavi (human, UniProt P55285 54-615)
T2 sequence: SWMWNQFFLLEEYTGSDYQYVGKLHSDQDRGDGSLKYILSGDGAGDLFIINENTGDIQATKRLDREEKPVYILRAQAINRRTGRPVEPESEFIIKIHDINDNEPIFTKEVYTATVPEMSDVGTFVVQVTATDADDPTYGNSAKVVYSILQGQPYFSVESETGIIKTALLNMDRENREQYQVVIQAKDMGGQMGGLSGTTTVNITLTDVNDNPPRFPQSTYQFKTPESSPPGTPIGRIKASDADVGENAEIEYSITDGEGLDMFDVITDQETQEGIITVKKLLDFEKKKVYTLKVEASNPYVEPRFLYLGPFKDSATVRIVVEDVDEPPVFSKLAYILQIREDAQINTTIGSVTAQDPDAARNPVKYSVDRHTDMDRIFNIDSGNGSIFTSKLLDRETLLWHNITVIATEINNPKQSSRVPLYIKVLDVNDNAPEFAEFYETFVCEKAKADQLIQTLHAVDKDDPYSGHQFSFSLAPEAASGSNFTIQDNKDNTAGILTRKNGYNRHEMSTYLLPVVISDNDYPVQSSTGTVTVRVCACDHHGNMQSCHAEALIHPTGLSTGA

B1: NOV1127 (antibody, human IgG1, kappa, V domains shown)
VH: QVQLQQSGPGLVKPSQTLSLTCAISGDSVSSQSAAWNWIRQSPSRGLEWLGRIYYRSKWYNDYAVSVKSRITINPDTSKNQFSLQLNSVTPEDTAVYYCARERSYRDYFDYWGQGTLVTVSS
VL: DIQMTQSPSSLSASVGDRVTITCRASQGIFTYLNWYQQKPGKAPKLLIYAASTLQSGVPSRFSGSGSGTDFTLTISSLQPEDFATYYCQQYYSTSLTFGQGTKVEIKR
B2: NOV0719 (antibody, human IgG1, kappa, V domains shown)
VH: QVQLLESGGGLVQPGGSLRLSCAASGFTFSSHWVHWVRQAPGKGLEWVSVISYMGSSTYYADSVKGRFTISRDNSKNTLYLQMNSLRAEDTAVYYCARGSYDMAFDVWGQGTLVTVSS
VL: DIQMTQSPSSLSASVGDRVTITCRASQSIVSYLNWYQQKPGKAPKLLIYDASSLQSGVPSRFSGSGSGTDFTLTISSLQPEDFATYYCQQSGSHSITFGQGTKVEIKR
B3: NOV1126 (antibody, human IgG1, lambda, V domains shown)
VH: EVQLLESGGGLVQPGGSLRLSCAASGFTFSDHAIDWVRQAPGKGLEWVSVIAGSGSITYYADSVKGRFTISRDNSKNTLYLQMNSLRAEDTAVYYCARDTGVYREYMDVWGQGTLVTVSS
VL: SYELTQPLSVSVALGQTARITCSGDAIGTKFAHWYQQKPGQAPVLVIYYDHERPSGIPERFSGSNSGNTATLTISRAQAGDEADYYCYSRASSNLVFGGGTKLTVLG
B4: NOV1132 (antibody, human IgG1, lambda, V domains shown)
VH: QVQLQQSGPGLVKPSQTLSLTCAISGDSVSSQSAGWNWIRQSPSRGLEWLGRIYYRSKWYNDYAVSVKSRITINPDTSKNQFSLQLNSVTPEDTAVYYCAREKYTVSFYDFFDYWGQGTLVTVSS
VL: SYELTQPLSVSVALGQTARITCSGDNIGSMTAHWYQQKPGQAPVLVIYDKNERPSGIPERFSGSNSGNTATLTISRAQAGDEADYYCQSWDDSYTSVVFGGGTKLTVLG

Legend:
[1] = target: T1, human CDH6 on cells; experiment: FACS on OVCAR3 cells, histogram table
[2] = target: T1, human CDH6 on cells; experiment: FACS on OVCAR8-CDH6+ cells, histogram table
[3] = target: T2, hCDH6aa54-615 APPavi; experiment: SPR binning
[4] = target: T2, hCDH6aa54-615 APPavi; experiment: SPR binning; remark: listed apart in the source
[5] = target: T2, hCDH6aa54-615 APPavi; experiment: SPR binning; remark: listed apart in the source
[6] = target: T2, hCDH6aa54-615 APPavi; experiment: SPR binning; remark: listed apart in the source
[7] = target: T2, hCDH6aa54-615 APPavi; experiment: SPR binning; remark: listed apart in the source
[8] = target: T2, hCDH6aa54-615 APPavi; experiment: SPR binning; remark: listed apart in the source
[9] = target: T2, hCDH6aa54-615 APPavi; experiment: SPR binning; remark: listed apart in the source

Geom. Mean Fluorescence [1] | Geom. Mean Fluorescence [2] | response of secondary antibody on primary antibody-CDH6 complex [3] | response of secondary antibody on primary antibody-CDH6 complex [4] | response of secondary antibody on primary antibody-CDH6 complex [5] | response of secondary antibody on primary antibody-CDH6 complex [6] | response of secondary antibody on primary antibody-CDH6 complex [7] | response of secondary antibody on primary antibody-CDH6 complex [8] | response of secondary antibody on primary antibody-CDH6 complex [9] | Molecule
60.4 | 56.5 |  |  |  |  |  |  |  | control IgG-sulfo-SPDB-DM4 (antibody)
 |  | 25.4 | 30.9 | 22.4 | 51.5 | 16.5 | 36.7 | 17.8 | B1
 |  | 13.5 | 16.1 | 11.1 | -2.36 | 25.4 | 46.9 | 20.7 | B2
 |  | 18.7 | 36.9 | 26.7 | 61.6 | 8.59 | 56.6 | 30.1 | B3
 |  | 17.9 | 17.8 | 14.3 | 33.6 | 23.7 | 39.3 | 1.08 | B4

Source: patent US20170224836A1 (Novartis, published 2017)
